{
  "source": "patent US20140017242A1",
  "about": "“ANTI-BRADYKININ B2 RECEPTOR (BKB2R) MONOCLONAL ANTIBODY” (Diamedica, Inc., priority 2010, published 2014)",
  "key": {"[1]": {"system": "RS-4;11", "test": "MTT Cell Proliferation Assay, RS-4;11", "assay_type": "cell-based, human", "settings": "120 hours of exposure", "text": "(§1) This Example describes characterization of the cytotoxic activity of herein described anti-BKB2R monoclonal antibodies against a panel of cancer cell lines. BxPC-3 is a human adenocarcinoma cell line originally isolated from the pancreas (pancreatic cancer) (ATCC # CRL-1687; Tan et al., Cancer Invest. 4: 15-23, 1986. PubMed: 3754176). MV-4-11 is a human biphenotypic B myelomonocytic leukemia (mixed-lineage leukemia, MLL-AF4) cell line originally isolated from the peripheral blood (ATCC # CRL-959; Lange et al., Blood 70: 192-199, 1987. PubMed: 3496132). Hep G2 is a human hepatocellular carcinoma cell line isolated from the liver (liver cancer) (ATCC # HB-8065; Aden et al., Nature 282: 615-616, 1979. PubMed: 233137). RS4;11 is a human acute lymphoblastic leukemia (mixed-lineage leukemia, MLL-AF4) cell line isolated from the bone marrow (ATTC # CRL-1873) Stong et al., Blood 65: 21-31, 1985. PubMed: 3917311). HT-29 is a human colorectal adenocarcinoma (ATTC # HTB-38) cell line isolated from the colon (colon cancer). Fogh et al., J. Natl. Cancer Inst. 58: 209-214, 1977. PubMed: 833871). NUGC-4 is a human stomach carcinoma isolated from the stomach paragastiric lymph node (JCRB # JCRB0834; Akiyama et al., Jpn. J. Surg., 18: 438-446, 1988). […]\n(§2) The anti-proliferative activity of test compounds against the indicated cell lines was evaluated in vitro using the ATCC's MTT Cell Proliferation Assay (Catalog No. 30-1010K). After the 120 hour incubation with drug (e.g., anti-BKB2R mAb or cisplatin), cell proliferation was measured by addition of MTT reagent to each well and incubation for an additional 4 hrs. […] Optical absorbance (570 nm) of the test wells was measured and then quantitated relative to control wells that received no drug. Results were expressed as percent inhibition versus compound concentration and graphed, as shown in FIGS. 19-25, for cell lines BxPC-3, MV-4;11, HepG2, RS-4;11, HT-29, NUGC-4, and PC-3, respectively."}, "[2]": {"system": "ZDF fa/fa rats", "test": "Oral glucose tolerance test in ZDF fa/fa rats, single dose of 5F12G1", "assay_type": "in vivo, rat", "settings": "single s.c. administration 1.0, 0.2 and 0.04 mg/kg", "experimental": "This Example describes evaluation of oral glucose tolerance in Zucker Diabetic fatty (ZDF fa/fa) rats treated with 5F12G1 monoclonal antibody. Male ZDF fa/fa rats (Charles River) were maintained on a Harlan Tekled diet with Arrowhead drinking water ad libitum and allowed to acclimatize for one week. Six animals per group were treated according to the following treatment groups: 1, sterile PBS (vehicle control); 2, 1.0 mg/kg murine monoclonal antibody (mAb) 5F12G1 (VH comprising SEQ ID NO:1, VL comprising SEQ ID NO:2); 3, 0.2 mg/kg mAb 5F12G1; 4, 0.04 mg/kg mAb 5F12G1.\nOral Glucose Tolerance Test. The Oral Glucose Tolerance Test (OGTT) was performed on overnight fasted (16 hours) rats. Vehicle control (PBS) or 5F12G1 monoclonal antibody was administered subcutaneously thirty minutes prior to glucose loading. D-glucose was prepared in distilled water and administered orally at 2 g/kg body weight.\nAt multiple time points (0, 15, 30, 60, 90 and 120 minutes) blood samples of approximately 50 μl each were collected and processed to isolate the plasma. The plasma samples were analyzed for insulin by an ELISA method using an ultra sensitive mouse insulin ELISA kit (Crystal Chem, Inc., Downers Grove, Ill.). ELISA data were compiled and used to calculate the mean±standard error (SEM) with Microsoft Excel or GraphPad Prism version 5.00 for Windows (GraphPad Software, San Diego Calif. USA)."}, "[3]": {"system": "MV-4-11", "test": "MTT Cell Proliferation Assay, MV-4-11", "assay_type": "cell-based, human", "settings": "120 hours of exposure", "text": "as §1, §2"}, "[4]": {"system": "diet induced obese (DIO) mice", "test": "Oral glucose tolerance test in DIO mice, single dose of 5F12G1", "assay_type": "in vivo, mouse", "settings": "single s.c. administration 1.0, 0.2 and 0.04 mg/kg", "experimental": "This Example describes evaluation of oral glucose tolerance in diet induced obese (DIO) mice treated with the anti-BKB2R monoclonal antibody 5F12G1 (VH comprising SEQ ID NO:1, VL comprising SEQ ID NO:2). Male C57BL/6J mice (Jackson Laboratory, Bar Harbor, Me.) were maintained on a 60 kcal % fat diet with Research Diet and Arrowhead drinking water ad libitum and permitted to acclimatize for a period of eight weeks. Ten animals per group were treated according to the following treatment groups: 1, sterile PBS (vehicle control); 2, 1.0 mg/kg murine monoclonal antibody (mAb) 5F12G1; 3, 0.2 mg/kg mAb 5F12G1; 4, 0.04 mg/kg mAb 5F12G1.\nOral Glucose Tolerance Test. The Oral Glucose Tolerance Test (OGTT) was performed on overnight fasted (16 hours) mice. […] Blood glucose levels were measured before administration of vehicle or 5F12G1 (−30 minutes) and just before glucose loading (0 minute) and at ensuing timepoints of 15, 30, 60 90 and 120 minutes using an Accu-Chek™ glucose meter (Roche Diagnostics, Indianapolis, Ind.) according to the manufacturer's instructions.\nAt multiple time points (0, 15, 30, 60, 90 and 120 minutes) blood samples of approximately 50 μl each were collected and processed to isolate the plasma. The plasma samples were analyzed for insulin by an ELISA method using an ultra sensitive mouse insulin ELISA kit (Crystal Chem, Inc., Downers Grove, Ill.). […]"}, "[5]": {"system": "Hep G2", "test": "MTT Cell Proliferation Assay, Hep G2", "assay_type": "cell-based, human", "settings": "120 hours of exposure", "text": "as §1, §2"}},
  "data": [
    {"molecule": "5F12G1: murine monoclonal anti-BKB2R antibody (IgG2b,κ), VH comprising SEQ ID NO:1, VL comprising SEQ ID NO:2 (antibody, listed as Mus musculus, V domains shown) VH: EVKLEESGGGLVQPGGSMKLSCVVSGFTFSDYWMSWVRHSPEMGLEWVAEIRLKSDNYATHYAESVKGRFTISRDDSKSRLYLQINSLRGEDTGIYYCTRDYYAMEYWGQGTSVTVSS VL: DVVMTQTPLSLPVSLGDQASISCRSSQTIVHSNGKTYLEWYLQKPGQSPKLLIYKVSNRFSGVPDRFSGSGSGTEFTLKISRVETEDLGVYYCFQASHVPYTFGGGTKLEIK", "values": [
      {"measurement": "EC 50 Values (ng/ml) RS-4;11", "setting": "[1]", "value": 15000, "unit": "ng/mL"},
      {"measurement": "insulin activity in OGTT", "setting": "[2]", "value": "dose dependently increased insulin activity"},
      {"measurement": "area under curve (AUC) of blood glucose concentration after oral loading of glucose, compared to vehicle control", "setting": "[2]; 30 min before glucose 2 g/kg", "value": "decreased"},
      {"measurement": "EC 50 Values (ng/ml) MV-4-11", "setting": "[3]", "value": 35000, "unit": "ng/mL"},
      {"measurement": "insulin activity in OGTT", "setting": "[4]", "value": "dose dependently increased insulin activity"},
      {"measurement": "area under curve (AUC) of blood glucose concentration after oral loading of glucose, compared to vehicle control", "setting": "[4]; 30 min before glucose 2 g/kg", "value": "decreased"},
      {"measurement": "EC 50 Values (ng/ml) Hep G2", "setting": "[5]", "value": 21000, "unit": "ng/mL"}
    ]}
  ]
}
